Laboratory results as given in patent publication US20230277618A1 (BROAD INSTITUTE, published 2023).

Biological target: T1, KIDINS220 (kinase D interacting substrate 220), endogenous in HEK-293T cells (human, UniProt Q9ULH0 1-1771)
T1 construct: whole, on cells; Endogenous protein of the 293 cells, detected by immunoblot after co-immunoprecipitation; also called ARMS; SINO
Assay: co-immunoprecipitation by V5 tag from HEK-293T cells, immunoblot for endogenous KIDINS220

T1 sequence (Q9ULH0 whole entry): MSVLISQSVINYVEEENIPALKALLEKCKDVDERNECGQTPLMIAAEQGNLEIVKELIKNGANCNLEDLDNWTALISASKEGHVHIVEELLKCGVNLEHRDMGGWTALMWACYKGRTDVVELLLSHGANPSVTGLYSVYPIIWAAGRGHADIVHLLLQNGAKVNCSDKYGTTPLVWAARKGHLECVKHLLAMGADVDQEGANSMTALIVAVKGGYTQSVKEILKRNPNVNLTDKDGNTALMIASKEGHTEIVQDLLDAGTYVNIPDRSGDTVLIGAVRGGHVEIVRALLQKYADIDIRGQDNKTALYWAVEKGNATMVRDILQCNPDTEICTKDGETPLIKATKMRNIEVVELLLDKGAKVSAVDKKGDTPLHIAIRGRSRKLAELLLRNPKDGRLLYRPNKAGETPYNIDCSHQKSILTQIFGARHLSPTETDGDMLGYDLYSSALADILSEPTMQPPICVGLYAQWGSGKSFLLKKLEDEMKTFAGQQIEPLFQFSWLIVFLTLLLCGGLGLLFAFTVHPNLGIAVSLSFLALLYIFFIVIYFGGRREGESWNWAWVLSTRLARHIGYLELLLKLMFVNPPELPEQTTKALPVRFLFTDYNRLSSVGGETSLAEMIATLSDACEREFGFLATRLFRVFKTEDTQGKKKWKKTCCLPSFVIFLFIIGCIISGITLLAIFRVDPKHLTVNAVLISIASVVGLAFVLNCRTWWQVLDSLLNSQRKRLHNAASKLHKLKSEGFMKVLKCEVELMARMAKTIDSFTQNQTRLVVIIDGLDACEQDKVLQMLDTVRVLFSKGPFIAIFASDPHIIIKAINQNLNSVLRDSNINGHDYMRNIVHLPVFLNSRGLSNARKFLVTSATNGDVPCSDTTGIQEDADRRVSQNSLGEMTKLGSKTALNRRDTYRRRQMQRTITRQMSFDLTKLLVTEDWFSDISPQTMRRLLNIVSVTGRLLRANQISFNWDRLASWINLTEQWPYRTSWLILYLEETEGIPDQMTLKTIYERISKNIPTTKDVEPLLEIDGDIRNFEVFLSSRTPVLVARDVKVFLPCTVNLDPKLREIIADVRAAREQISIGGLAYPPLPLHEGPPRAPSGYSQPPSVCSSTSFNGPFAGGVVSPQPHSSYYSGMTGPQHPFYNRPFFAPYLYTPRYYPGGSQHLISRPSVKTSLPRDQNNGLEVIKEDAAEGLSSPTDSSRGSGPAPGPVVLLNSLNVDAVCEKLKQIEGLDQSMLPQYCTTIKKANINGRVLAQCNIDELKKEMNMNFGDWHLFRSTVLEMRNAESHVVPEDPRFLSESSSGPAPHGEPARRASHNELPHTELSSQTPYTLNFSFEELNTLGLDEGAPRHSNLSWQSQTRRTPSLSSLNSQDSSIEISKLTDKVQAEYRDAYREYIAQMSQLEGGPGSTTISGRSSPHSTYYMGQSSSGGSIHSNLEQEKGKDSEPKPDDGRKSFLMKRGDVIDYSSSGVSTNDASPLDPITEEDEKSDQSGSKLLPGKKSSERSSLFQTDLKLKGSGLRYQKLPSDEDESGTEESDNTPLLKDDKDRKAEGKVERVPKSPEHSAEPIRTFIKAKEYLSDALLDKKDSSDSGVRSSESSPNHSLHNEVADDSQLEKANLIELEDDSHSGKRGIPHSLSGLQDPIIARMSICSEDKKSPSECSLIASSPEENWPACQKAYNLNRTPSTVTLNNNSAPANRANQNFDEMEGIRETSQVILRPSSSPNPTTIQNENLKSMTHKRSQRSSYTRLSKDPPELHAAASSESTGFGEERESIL

B1: XPR1 SPX domain only construct with C-terminal V5 tag (other, human, UniProt Q9UBH6 1-224, looked up, not shown: small tags and cut ends)
chain: MKFAEHLSAHITPEWRKQYIQYEAFKDMLYSAQDQAPSVEVTDEDTVKRYFAKFEEKFFQTCEKELAKINTFYSEKLAEAQRRFATLQNELQSSLDAQKESTGVTTLRQRRKPVFHLSHEERVQHRNIKDLKLAFSEFYLSLILLQNYQNLNFTGFRKILKKHDKILETSRGADWRVAHVEVAPFYTCKKINQLISETEAVVTNELEDGDRQKAMKRLRVPPLG
notes: domain: SPX domain; also called SPX domain only constructs; N-terminal SPX domain of XPR1
binding result: no binding
